Biological target: XPB–p62–p44–p34 sub-complex (human, UniProt P19447 1-782; P32780 1-548; Q13888 1-395; Q13889 1-308)
Assay: SEC

Chain of XPB–p62–p44–p34 sub-complex (P19447 whole entry, chain 1 of 4): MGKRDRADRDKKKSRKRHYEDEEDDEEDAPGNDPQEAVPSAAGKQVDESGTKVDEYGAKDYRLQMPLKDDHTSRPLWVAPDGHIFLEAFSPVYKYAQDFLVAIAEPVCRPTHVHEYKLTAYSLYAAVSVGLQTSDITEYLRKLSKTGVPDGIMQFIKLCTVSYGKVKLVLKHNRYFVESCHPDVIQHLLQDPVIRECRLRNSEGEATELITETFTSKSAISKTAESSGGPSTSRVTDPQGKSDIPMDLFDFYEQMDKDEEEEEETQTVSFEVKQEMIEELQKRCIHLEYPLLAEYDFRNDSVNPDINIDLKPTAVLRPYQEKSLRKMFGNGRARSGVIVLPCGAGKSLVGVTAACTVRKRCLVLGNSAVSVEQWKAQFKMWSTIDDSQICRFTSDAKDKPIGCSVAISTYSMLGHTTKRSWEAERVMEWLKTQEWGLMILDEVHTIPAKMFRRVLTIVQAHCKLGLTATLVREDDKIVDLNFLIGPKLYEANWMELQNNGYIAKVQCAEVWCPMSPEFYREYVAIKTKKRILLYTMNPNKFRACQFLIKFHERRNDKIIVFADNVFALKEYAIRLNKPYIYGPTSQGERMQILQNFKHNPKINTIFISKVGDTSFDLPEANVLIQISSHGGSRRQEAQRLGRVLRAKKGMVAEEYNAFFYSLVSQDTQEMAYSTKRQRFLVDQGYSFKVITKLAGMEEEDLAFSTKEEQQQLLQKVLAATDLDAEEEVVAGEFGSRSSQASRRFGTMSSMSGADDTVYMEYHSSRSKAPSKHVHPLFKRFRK
Chain of XPB–p62–p44–p34 sub-complex (P32780 whole entry, chain 2 of 4): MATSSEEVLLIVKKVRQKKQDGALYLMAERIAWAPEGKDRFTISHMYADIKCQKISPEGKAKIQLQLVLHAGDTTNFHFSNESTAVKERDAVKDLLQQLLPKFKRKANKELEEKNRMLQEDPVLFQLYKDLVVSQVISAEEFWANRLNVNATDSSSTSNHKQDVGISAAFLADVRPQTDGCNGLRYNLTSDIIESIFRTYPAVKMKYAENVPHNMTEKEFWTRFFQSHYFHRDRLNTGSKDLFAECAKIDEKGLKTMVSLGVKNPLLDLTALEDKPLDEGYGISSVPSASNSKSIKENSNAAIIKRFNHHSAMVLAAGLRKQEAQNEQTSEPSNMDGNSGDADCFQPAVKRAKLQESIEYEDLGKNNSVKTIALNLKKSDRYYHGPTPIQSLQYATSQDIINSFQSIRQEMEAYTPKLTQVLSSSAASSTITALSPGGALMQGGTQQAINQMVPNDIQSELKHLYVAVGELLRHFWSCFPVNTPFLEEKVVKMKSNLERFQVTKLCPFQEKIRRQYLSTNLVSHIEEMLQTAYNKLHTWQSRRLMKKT
Chain of XPB–p62–p44–p34 sub-complex (Q13888 whole entry, chain 3 of 4): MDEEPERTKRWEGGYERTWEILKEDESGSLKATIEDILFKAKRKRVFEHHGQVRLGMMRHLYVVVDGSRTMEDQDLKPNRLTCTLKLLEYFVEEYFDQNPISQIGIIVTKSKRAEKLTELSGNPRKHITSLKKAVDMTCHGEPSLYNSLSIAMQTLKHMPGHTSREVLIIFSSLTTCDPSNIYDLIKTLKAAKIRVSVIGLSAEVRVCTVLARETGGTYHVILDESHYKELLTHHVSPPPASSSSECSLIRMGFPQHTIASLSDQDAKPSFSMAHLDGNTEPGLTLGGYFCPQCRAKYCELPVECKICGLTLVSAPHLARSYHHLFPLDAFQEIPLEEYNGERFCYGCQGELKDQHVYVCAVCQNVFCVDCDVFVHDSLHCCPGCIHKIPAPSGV
Chain of XPB–p62–p44–p34 sub-complex (Q13889 whole entry, chain 4 of 4): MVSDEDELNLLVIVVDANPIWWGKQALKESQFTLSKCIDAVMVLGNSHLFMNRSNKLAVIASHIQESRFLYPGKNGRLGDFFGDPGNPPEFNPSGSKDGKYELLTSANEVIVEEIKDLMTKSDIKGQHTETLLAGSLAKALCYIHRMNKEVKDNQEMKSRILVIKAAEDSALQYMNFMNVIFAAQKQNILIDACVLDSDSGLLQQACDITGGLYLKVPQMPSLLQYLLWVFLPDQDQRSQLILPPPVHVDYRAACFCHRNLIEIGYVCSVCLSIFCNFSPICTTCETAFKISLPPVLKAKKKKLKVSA

binding result: binds
B1: GST–p8 (natural protein, human, UniProt Q6ZYL4 1-71, looked up)
chain: MVNVLKGVLIECDPAMKQFLLYLDESNALGKKFIIQDIDDTHVFVIAELVNVLQERVGELMDQNAFSLTQK
